Measured values as given in patent US12448434B2, “Antibodies specifically recognizing Pseudomonas PcrV and uses thereof” (priority 2019, dated 2025).

Assays:
mutated PcrV = assay: Epitope mapping: ELISA binding to alanine-scanning mutated PcrV; set-up: species or system P. aeruginosa
Description: Using the discovery studio software, the predicted binding sites on PcrV for 7B1 and the optimized antibodies were identified, and the amino acid residues within the binding sites and in proximity to the binding sites were selected and subjected to alanine scanning. Subsequently, PcrV proteins carrying these selected mutations were expressed. The binding affinity of 7B1-IgG1 for each mutated PcrV protein was analyzed using ELISA. FIGS. 14A-14D show the ELISA binding curves of the antibodies for mutated PcrV, where mutation positions were according to sequence of SEQ ID NO: 71. As used herein, PcrV represents a His-tagged wild-type P. aeruginosa PcrV (PcrV-6His). Mutations at various positions of the amino acid sequence of the wild type PcrV were generated using alanine scanning as described above.

[1] = tested on: P. aeruginosa (PA103 strain); assay: Prophylactic mouse acute pneumonia model, survival; format: in vivo, BALB/c mice; conditions: i.p. 24 h before infection, 1 or 10 mg/kg; 1*LD90 or 2*LD90; 7 days
Description: The candidate anti-PcrV antibodies were assayed for the ability to improve survival in a mouse acute pneumonia model. In a prophylactic model, 7-8 week old BALB/c mice (Vital River Laboratory) were administered the candidate antibodies or PBS intraperitoneally (i.p.) 24 hr before infection, at doses of 1, 5, 10 or 25 mg/kg mouse weight. […] Mouse survival was recorded for up to 7 days post-infection.
In a prophylactic model, 7-8 week old BALB/c mice (Vital River Laboratory) were administered with antibodies intraperitoneally (i.p.) 24 h before infection, at doses of 1 or 10 mg/kg mouse weight. […] Mouse survival was recorded for up to 7 days post-infection. The results were represented as Kaplan-Meier survival curves.

[2] = tested on: P. aeruginosa (PA103 strain); assay: Mouse intraperitoneal infection model, antibody alone or combined with antibiotics, survival; format: in vivo, BALB/c mice; conditions: antibody 5 mg/kg i.p. 24h before infection; 3*LD90; 5 days; FIG. 12A
Description: The ability of the optimized anti-PcrV antibody 7B1 or 8C1 to improve survival in mouse intraperitoneal infection model was evaluated in comparison to antibiotics Meropenem, Tobramycin, Ciprofloxacin; and also in comparison to combination treatment of 7B1 or 8C1 with either antibiotic. HIV-10E8 was used as negative control.
In a prophylactic model for anti-PcrV testing, 7-8 week old BALB/c mice (Vital River Laboratory) were intraperitoneally injected with antibody 24h before infection or with antibiotic 1h post infection. Specifically, the mice were administered with either optimized anti-PcrV antibody clone 7B1 or 8C1 (at 5 mg/kg), Meropenem (at 3 mg/kg), Tobramycin (at 10 mg/kg), Ciprofloxacin (at 30 mg/kg), or a combination of 7B1 or 8C1 with one of the antibiotics. To induce intraperitoneal infection, the BALB/c mice were intraperitoneally inoculated with P. aeruginosa (PA103 strain) suspended in a 300 μl inoculum at triple the lethal dose (3*LD90=7×10^5 CFU). Mouse survival was recorded for up to 5 days post-infection.

[3] = tested on: P. aeruginosa strains O1-52/66, O16-177/81, and O6-57/66; assay: RBC lysis inhibition assay, various strains (average); format: cell-based, Pseudomonas aeruginosa; conditions: FIGS. 5A-5C
Description: Monoclonal scFv antibodies were selected and assessed for biological activity by RBC lysis assay. Briefly, red blood cells (RBCs) were prepared from fresh whole human or rabbit blood by centrifugation, supplemented with EDTA and rinsed with multiple phosphate-buffered saline (PBS) washes. Washed RBCs (2.5% [vol/vol] final) in Dulbecco's modified Eagle's medium (DMEM) plus 10% fetal bovine serum (FBS) (Gibco) and purified anti-PcrV antibodies diluted in PBS were combined into wells of a round-bottom 96-well plate. Strain 57/66(O6) P. aeruginosa was grown to mid-log phase in 2× YT medium (Oxford), harvested by centrifugation, and resuspended in DMEM-fetal bovine serum (FBS) at an optical density at 600 nm (OD600) of 0.15. Ten microliters of bacterial suspension was added to the RBC-antibody mixture, mixed by agitation, and incubated for 3 hours at 37° C. and 5% CO2. The plates were briefly centrifuged (1000 rpm, 1 min) to pellet the intact RBCs, the supernatants transferred to a flat-bottom 96-well plate, and the OD405 was measured to detect any lysis, from which the relative amount of lysis inhibition was calculated and plotted. IC50 values for the antibodies were also determined.
The optimized anti-PcrV mAb clones 7C1, 8C1, and 7B1 were further analyzed for their abilities to inhibit red blood cell lysis by various strains of P. aeruginosa, namely strains O1-52/66, O16-177/81, and O6-57/66, as compared to the parental 13-42 mAb and the reference antibody V2L2-MD. RBC lysis inhibition assay was performed as described in Example 1.

PcrV-negative A549 cells = assay: Cross-reactivity to PcrV-negative A549 cells by FACS; format: cell-based, human; conditions: FIGS. 4A-4E, compared with no antibody and V2L2-MD
Description: Cross-reactivity to A549 cells: Using FACS, parental antibody 13-42, optimized antibodies 7C1, 7B1, 8C1, 6D10 as well as V2L2-MD were tested for cross-reactivity to PcrV-negative A549 cells.

[4] = tested on: P. aeruginosa (O6-57/66 strain); assay: Prophylactic mouse intraperitoneal infection model, survival; format: in vivo, BALB/c mice; conditions: 5 mg/kg antibody dose i.p. 24 h before infection; 3*LD90; 5 days
Description: The ability of the optimized anti-PcrV antibodies 7C1, 7B1 and 8C1 to improve survival in a mouse intraperitoneal infection model was evaluated in comparison to parental 13-42 mAb. HIV-10E8 was used as negative control. The mouse intraperitoneal infection model was generated as described previously (See Warrener et al., 2014, Antimicrob. Agents Chemother., 58, 4384-4391).
In a prophylactic model, 7-8 week old BALB/c mice (Vital River Laboratory) were administered antibodies by intraperitoneal (i.p.) injection 24 h before infection, at doses of 5 or 25 mg/kg mouse weight. To induce intraperitoneal infection, the BALB/c mice were intraperitoneally inoculated with P. aeruginosa (O6-57/66 strain) suspended in a 300 μl inoculum at triple the lethal dose (3*LD90=7×10^5 CFU). Mouse survival was recorded for up to 5 days post-infection.

Molecule	effect of PcrV mutation at position D165 on binding (mutated PcrV; FIG. 14C)	effect of PcrV mutation at position Q160 on binding (mutated PcrV; FIG. 14C)	effect of PcrV mutation at position D170 on binding (mutated PcrV; FIG. 14D)	effect of PcrV mutation at position D173 on binding (mutated PcrV; FIG. 14D)	effect of PcrV mutation at position S202 on binding (mutated PcrV; FIG. 14D)	effect of PcrV mutation at position T175 on binding (mutated PcrV; FIG. 14D)	survival improvement relative to parental 13-42 mAb [1]	survival improvement of antibody alone relative to Meropenem (3 mg/kg) [2]	efficacy in inhibiting RBC lysis by strains O1-52/66, O16-177/81, O6-57/66 relative to V2L2-MD or parental 13-42 mAb [3]	binding to PcrV-negative A549 cells (PcrV-negative A549 cells)	survival improvement relative to parental 13-42 mAb [4]
7B1: optimized anti-PcrV mAb clone; VH SEQ ID NO: 62, VL SEQ ID NO: 67 (antibody, V domains shown) VH: EVQLLESGGGLVQPGGSLRLSCTASGFTFSDNYMSWVRQAPGKGLDWVSVISESGGSTNYADSVKGRFSTSRDNSKSTLYLDMNSLRAEDTAIYYCAKGRFSTLSSHFFRAVYGMDVWGQGTAVTVSS VL: DIQLTQSPSSLSASVGDRVTITCRASQGISSYLAWYQQKPGKAPKLLIYAASTLQSGVPSRFSGSGSGTDFTLTISSLQPEDFATYYCQQLSSYPLTFGGGTKVEIK	affected binding	significantly affected binding	affected binding	affected binding	affected binding	affected binding	comparable or better survival improvements	better or comparable survival improvement	better efficacy in inhibiting RBC lysis	similarly low levels of A549 binding	comparable or better survival improvement
7C1: optimized anti-PcrV mAb clone; VH SEQ ID NO: 52, VL SEQ ID NO: 65 (antibody, V domains shown) VH: EVQLLESGGGLVQPGGSLRLSCTASGFTFSDNHMSWVRQAPGKGLDWVSGISESGGSTNYADSVKGRFSTSRDNSKSTLYLDMNSLRAEDTAIYYCAKGRFSTSSSHFYRAVYGMDVWGQGTAVTVSS VL: DIQLTQSPSSLSASVGDRVTITCRASQGISSYLAWYQQKPGKAPKLLIYAASTLQSGVPSRFSGSGSGTDFTLTISSLQPEDFATYYCQQLSSYPLSFGGGTKVEIK							comparable or better survival improvements		better efficacy in inhibiting RBC lysis	similarly low levels of A549 binding	comparable or better survival improvement
8C1: optimized anti-PcrV mAb clone; VH SEQ ID NO: 51, VL SEQ ID NO: 67 (antibody, V domains shown) VH: EVQLLESGGGLVQPGGSLRLSCTASGFTFSDNHMSWVRQAPGKGLDWVSGISESGGSTNYADSVKGRFSTSRDNSKSTLYLDMNSLRAEDTAIYYCAKGRFSTNSAHFFRAVYGMDVWGQGTAVTVSS VL: DIQLTQSPSSLSASVGDRVTITCRASQGISSYLAWYQQKPGKAPKLLIYAASTLQSGVPSRFSGSGSGTDFTLTISSLQPEDFATYYCQQLSSYPLTFGGGTKVEIK									better efficacy in inhibiting RBC lysis	similarly low levels of A549 binding	
